Source: patent publication US10059748B2, “Pharmaceutical compositions for prevention or treatment of neurodegenerative diseases” (INSERM (INSTITUT NATIONAL DE LA SANTÉ ET DE LA RECHERCHE …, priority 2014, dated 2018)

B1: X protein: 87 amino acid X protein of Borna Disease Virus, expressed from a lentiviral vector (LV-X) (protein)
chain: MSSDLRLTLLELVRRLNGNATIESGRLPGGRRRSPDTTTGTVGVTKTTEDPKECIDPTGRPAPEGPQEEPLHDLRPRPANRKGAAIE
modifications: Borna disease virus

Columns and labels:
[1] = test system: primary cortical neurons; test: Kinetics of neuronal death (pyknotic nuclei, TOPRO-3) after rotenone in microfluidic cultures; type: cell-based, rat; details: somatic application of rotenone
Protocol: 12 day-old neuronal cultures were subjected to oxidative stress by adding the respiratory chain complex I inhibitors rotenone (1 μM, diluted in DMEM containing 1 g/L glucose (Invitrogen), supplemented with 2 mM glutamine+1% penicillin/streptomycin+2% B-27+1% N2 supplements (Invitrogen)) or MPP+(1-methyl-4-phenylpyridinium, 10 μM in complete neuronal culture medium). The microtubule inhibitor colchicine (10 μM, complete neuronal culture medium) was used as a non-mitochondrial stress control. Toxins were added in the somatic or axonal chambers for respectively, somatic or axonal stress.
Neurons in the microfluidic cultures were fixed for 40 min at room temperature with PBS containing 4% paraformaldehyde (PFA), permeabilized using PBS+0.1% Triton-X100 during 20 min, rinsed with PBS, and blocked for 2 h with PBS+2.5% normal goat serum+3% BSA (blocking buffer). […] Fluorescence-based analyses and measurements were performed on either Zeiss LSM-510 or Zeiss LSM-710 inverted confocal microscopes with a 40× objective (63× objective for the analysis of mitochondrial network morphology and quantification of pDrp1 (S616) immunoreactivity). Immuno fluorescence analyses of Drp1 were performed using anti-pDrp1 (S616) (Cell Signaling Technologies, diluted 1:1000). Quantification of fluorescence intensities was performed using the threshold-based fluorescence quantification module of ImageJ software. […]

[2] = test system: ROS production in primary neurons; test: ROS production measurement (c-H2DCFDA); type: cell-based, rat; details: LV-transduced neurons, no stress
Protocol: The culture medium was removed from the axonal or somatic chambers and replaced by pre-warmed PBS containing carboxy-2′,7′-dichlorodihydrofluorescein diacetate (c-H2DCFDA, 5 μM in PBS; LifeTechnologies) for 45 min at 37° C., 5% CO2. After 2 washes in PBS, cultures were returned to warm culture medium for 30 min. Cells were fixed and the integrative fluorescence was measured on 3 randomly selected fields for each axonal chamber. Tert-butyl hydroperoxide (TBHP, LifeTechnologies) was used as a positive control of ROS detection. ROS amounts were detected by fluorescence (excitation/emission: 495/529 nm) and quantified by measuring integrative emission signal intensities for each culture (mean of 4 randomly taken pictures in the case of microfluidic cultures using Zeiss LSM 510 confocal; signal intensity of the whole culture for traditional cultures, using a VarioSkan Flash fluorescence reader (Thermo Electron)).

[3] = test system: nigrostriatal dopaminergic (DA) neurons; test: MPTP intoxication mouse model of PD, TH immunodetection in striatum and SNpc; type: in vivo; details: lentiviral vector, stereotaxic injection in SNpc two weeks before MPTP
Protocol: Peptides covering the N-terminal (PX1, aa 1-30), middle (PX2, aa 29-59) or C-terminal (PX3, aa 59-87) parts of BDV X protein (GenBank: ABW81015.1) coupled to the MPP sequence were synthesized to >95% (in vitro studies) or >99% (in vivo studies) purity (Génosphère). For in vitro experiments, neurons were grown for 12 days before replacing the medium by fresh complete neuronal culture medium containing 5 μM of the peptides. The cultures were maintained 90 min at 37° C., 5% CO2 before any treatment or analysis to ensure peptide penetration into neuronal mitochondria. For intra-cerebroventricular delivery, peptides were injected as described below. For intranasal peptide delivery, 10 μl drops of peptide solution (1 mM solution in saline: H2O+0.9% NaCl) were placed onto the mice nostrils daily from the day before to the 3rd day after MPTP intoxication. […]
For immunohistochemical staining, free-floating brain sections were first quenched for 5 min in 20% (v/v) methanol and 1% (v/v) hydrogen peroxide diluted in PBS, then blocked for 30 min in a 4% solution of BSA diluted in PBS-0.3% Triton-X100 and incubated overnight at 4° C. with a primary antibody directed against tyrosine hydroxylase (1:500 dilution, US biological). […] TH-positive neurons were quantified stereologically on regularly spaced sections covering the whole Substantia Nigra pars compacta (SNpc). […]

[4] = test system: primary cortical neurons; test: Axonal fragmentation in microfluidic primary neuron cultures after toxin treatment; type: cell-based, rat; details: neurons transduced with lentiviral vectors; rotenone in axonal chamber 16 h
Protocol: Primary cortical neurons were prepared from Sprague-Dawley rat embryos at gestational day 17. After dissection, cortex tissue was dissociated by a 15 min incubation at 37° C. in PBS containing 10 U/ml Papain (Worthington), followed by a gentle dissociation in PBS containing 1.5 mg/ml bovine serum albumin (BSA) and 1.5 mg/ml Trypsin inhibitor (from chicken egg, Sigma-Aldrich). After centrifugation through a 4% BSA cushion, neurons were plated on culture dishes coated with 0.5 mg/ml Poly-DL-Ornithine (PO, overnight, Sigma-Aldrich) and 5 mg/ml Laminin (2 h, Roche). Neuronal cultures were maintained in complete neuronal culture medium composed of serum-free Neurobasal (Gibco) supplemented with 2 mM L-Glutamine, 100 μg/ml penicillin/streptomycin (Gibco) and 2% B-27 supplement (Gibco). […]
The analysis of axonal degeneration was performed both by phase contrast observation and after immunostaining of axonal βIII-tubulin (Sigma-Aldrich). […] For each microfluidic culture, the total βIII-tubulin staining area was measured on 4 randomly selected pictures taken in the axonal chamber (MetaMorph software analysis, fixed thresholds). Then, the number of tubulin spots of fragmented axons was manually counted (Imaris software, Spot counting for “clicking” records) and the ratio between the number of spots and the total staining area was defined as a fragmentation index. […]

[5] = test system: mitochondrial membrane potential (ΔΨm) of primary neurons; test: Mitochondrial membrane potential analysis (JC-1); type: cell-based, rat; details: LV-transduced neurons, no stress
Protocol: Axons were stained with JC-1 dye (2 μM in PBS; LifeTechnologies) as described by the manufacturer. Briefly, JC-1 was added to the culture medium for 45 min at 37° C., 5% CO2, washed twice with PBS and analyzed by confocal microscopy using 488 nm excitation together with 530 nm and 585 nm band pass emission filters, whilst maintaining the cells at 37° C. and 5% CO2. Total fluorescence intensity was measured for each emission band pass with fixed thresholds and ratios between “red” (585 nm: active mitochondria) and “green” (530 nm: total mitochondria network) were determined for each culture (means of 4 randomly chosen pictures for each microfluidic culture).

[6] = test system: mitochondrial network of primary neurons; test: Analysis of mitochondrial network morphology (Tom20 staining); type: cell-based, rat
Protocol: Primary cortical neurons were prepared from Sprague-Dawley rat embryos at gestational day 17. After dissection, cortex tissue was dissociated by a 15 min incubation at 37° C. in PBS containing 10 U/ml Papain (Worthington), followed by a gentle dissociation in PBS containing 1.5 mg/ml bovine serum albumin (BSA) and 1.5 mg/ml Trypsin inhibitor (from chicken egg, Sigma-Aldrich). After centrifugation through a 4% BSA cushion, neurons were plated on culture dishes coated with 0.5 mg/ml Poly-DL-Ornithine (PO, overnight, Sigma-Aldrich) and 5 mg/ml Laminin (2 h, Roche). Neuronal cultures were maintained in complete neuronal culture medium composed of serum-free Neurobasal (Gibco) supplemented with 2 mM L-Glutamine, 100 μg/ml penicillin/streptomycin (Gibco) and 2% B-27 supplement (Gibco).
Neurons were grown for 9 days at low density on 12 mm diameter glass coverslips placed in 24-well plates (5×10^4 cells per well). Transduction with lentiviral vectors was performed on day 3, whereas peptide was added to the medium on day 9. Neurons were left untreated or subjected to rotenone treatment (5 to 100 nM for 2 h, diluted in PBS), rinsed, fixed and directly stained for neuronal marker (βIII-tubulin) and mitochondria (Tom20, Santa Cruz Biotech.). Confocal pictures were taken and blinded to the investigator before image analysis. The sizes of mitochondria in all neuronal extensions of randomly selected neurons were determined using ImageJ software and mitochondria were classified in size categories (ranging from <2 μm to >8 μm). Each category was expressed as percentages relative to the size of the total mitochondrial network for a given neuron.

[7] = test system: oxygen consumption rates of primary neurons; test: Mitochondrial respiration measurements (Seahorse XF24 OCR); type: cell-based, rat; details: LV-transduced neurons, no stress
Protocol: Real-time measurements of oxygen consumption rates (OCR) were performed using a Seahorse XF24 extracellular flux analyzer (Seahorse Bioscience). Neurons were seeded and grown for 9 days in Seahorse XF24-wells plates (3×10^4 cells/well). Transduction with lentiviral vectors was performed on the 3rd day after seeding. Before measurements, the culture medium was replaced by warm respiration medium: DMEM without phenol red supplemented with 10 mM glucose, 2 mM L-Glutamine and 2 mM Pyruvate (Gibco) (the pH of the final culture medium was adjusted to 7.4). Following three 2-minute baseline measurements of OCR (3 minute-rest between each measure), mitochondrial complex inhibitors were sequentially injected into each well. Three OCR readings were taken after addition of each inhibitor and before automated injection of the subsequent inhibitor. Mitochondrial complex inhibitors, in order of injection, were Oligomycin (2 μM) to inhibit complex V (i.e., ATP synthase), FCCP (20 μM) to uncouple the proton gradient, Rotenone (2.0 μM), to inhibit complex I and Antimycin (2.0 μM), to inhibit complex III. OCR values were automatically calculated, recorded, and plotted by the Seahorse XF24 software.

[8] = test system: OPA1, Mfn1/2, Fis1, Drp1; test: Expression and recruitment of mitochondrial fission/fusion actors; type: cell-based; details: X-expressing cells
[9] = test system: Drp1 (S616) phosphorylation; test: Immunofluorescence quantification of phospho-Drp1 (S616); type: cell-based, rat
Protocol: Neurons in the microfluidic cultures were fixed for 40 min at room temperature with PBS containing 4% paraformaldehyde (PFA), permeabilized using PBS+0.1% Triton-X100 during 20 min, rinsed with PBS, and blocked for 2 h with PBS+2.5% normal goat serum+3% BSA (blocking buffer). Incubation for at least 2 h at room temperature with primary antibodies diluted in blocking buffer was followed, after extensive washes in PBS, by 1 h incubation at room temperature with fluorescently-conjugated secondary antibodies diluted in PBS. For TOPRO3 staining, somatic chambers were incubated with TOPRO3 (1:1000 in PBS; Invitrogen) for 10 min and then rinsed twice in PBS. All incubation and washes were reduced by 50% for neurons grown in standard coverslips. Fluorescence-based analyses and measurements were performed on either Zeiss LSM-510 or Zeiss LSM-710 inverted confocal microscopes with a 40× objective (63× objective for the analysis of mitochondrial network morphology and quantification of pDrp1 (S616) immunoreactivity). Immuno fluorescence analyses of Drp1 were performed using anti-pDrp1 (S616) (Cell Signaling Technologies, diluted 1:1000). Quantification of fluorescence intensities was performed using the threshold-based fluorescence quantification module of ImageJ software. All data were normalized on βIII-tubulin staining.

Molecule	time to cell death [1]	impact on ROS production at steady-state [2]	ipsilateral TH-positive neurons in the SNpc after MPTP [3]	ipsilateral striatal fibers (TH) after MPTP [3]	protection against rotenone-induced axonal fragmentation [4]	impact on ΔΨm at steady-state [5]	rotenone-induced mitochondrial fission ([6]; after rotenone)	weighted mean size of mitochondria ([6]; after rotenone-induced oxidative stress (10 nM rotenone 2 h))	decrease of short, fragmented mitochondria (<2 μm) ([6]; steady state)	weighted mean size of mitochondria ([6]; steady state, without rotenone)	impact on respiration at steady-state [7]	expression levels of OPA1, Mfn1/2, Fis1, Drp1 vs control cells [8]	recruitment of Drp1 to the mitochondria vs control cells [8]	enhanced Drp1 phosphorylation after treatment with rotenone ([9]; after rotenone)	phosphorylation of Drp1 on serine-616 ([9]; steady state)
C=C(C)[C@H]1Cc2c(ccc3c2O[C@@H]2COc4cc(OC)c(OC)cc4[C@@H]2C3=O)O1 [rotenone]	< 4 h														
B1		no impact	almost complete protection	preservation	same level of axonal protection as infection with BDV	no impact	significantly reduced	4.54 μm	60%	5.22 μm	no impact	did not find any significant difference	no difference	selectively reduced	severely reduced
